# Measured values taken from IntAct's records for PubMed 31515488.
# B1: Microtubule-associated protein RP/EB family member 1 (Homo sapiens), Q15691 (parent)
# chain: MAVNVYSTSVTSDNLSRHDMLAWINESLQLNLTKIEQLCSGAAYCQFMDMLFPGSIALKKVKFQAKLEHEYIQNFKILQAGFKRMGVDKIIPVDKLVKGKFQDNFEFVQWFKKFFDANYDGKDYDPVAARQGQETAVAPSLVAPALNKPKKPLTSSSAAPQRPISTQRTAAAPKAGPGVVRKNPGVGNGDDEAAELMQQVNVLKLTVEDLEKERDFYFGKLRNIELICQENEGENDPVLQRIVDILYATDEGFVIPDEGGPQEEQEEY
# B2: ATP synthase mitochondrial F1 complex assembly factor 2 (Homo sapiens), Q8N5M1 (parent)
# chain: MWRSCLRLRDGGRRLLNRPAGGPSASMSPGPTIPSPARAYAPPTERKRFYQNVSITQGEGGFEINLDHRKLKTPQAKLFTVPSEALAIAVATEWDSQQDTIKYYTMHLTTLCNTSLDNPTQRNKDQLIRAAVKFLDTDTICYRVEEPETLVELQRNEWDPIIEWAEKRYGVEISSSTSIMGPSIPAKTREVLVSHLASYNTWALQGIEFVAAQLKSMVLTLGLIDLRLTVEQAVLLSRLEEEYQIQKWGNIEWAHDYELQELRARTAAGTLFIHLCSESTTVKHKLLKE
# B3: Hypoxia-inducible factor 1-alpha inhibitor (Homo sapiens), Q9NWT6 (parent)
# chain: MAATAAEAVASGSGEPREEAGALGPAWDESQLRSYSFPTRPIPRLSQSDPRAEELIENEEPVVLTDTNLVYPALKWDLEYLQENIGNGDFSVYSASTHKFLYYDEKKMANFQNFKPRSNREEMKFHEFVEKLQDIQQRGGEERLYLQQTLNDTVGRKIVMDFLGFNWNWINKQQGKRGWGQLTSNLLLIGMEGNVTPAHYDEQQNFFAQIKGYKRCILFPPDQFECLYPYPVHHPCDRQSQVDFDNPDYERFPNFQNVVGYETVVGPGDVLYIPMYWWHHIESLLNGGITITVNFWYKGAPTPKRIEYPLKAHQKVAIMRNIEKMLGEALGNPQEVGPLLNTMIKGRYN
# partner: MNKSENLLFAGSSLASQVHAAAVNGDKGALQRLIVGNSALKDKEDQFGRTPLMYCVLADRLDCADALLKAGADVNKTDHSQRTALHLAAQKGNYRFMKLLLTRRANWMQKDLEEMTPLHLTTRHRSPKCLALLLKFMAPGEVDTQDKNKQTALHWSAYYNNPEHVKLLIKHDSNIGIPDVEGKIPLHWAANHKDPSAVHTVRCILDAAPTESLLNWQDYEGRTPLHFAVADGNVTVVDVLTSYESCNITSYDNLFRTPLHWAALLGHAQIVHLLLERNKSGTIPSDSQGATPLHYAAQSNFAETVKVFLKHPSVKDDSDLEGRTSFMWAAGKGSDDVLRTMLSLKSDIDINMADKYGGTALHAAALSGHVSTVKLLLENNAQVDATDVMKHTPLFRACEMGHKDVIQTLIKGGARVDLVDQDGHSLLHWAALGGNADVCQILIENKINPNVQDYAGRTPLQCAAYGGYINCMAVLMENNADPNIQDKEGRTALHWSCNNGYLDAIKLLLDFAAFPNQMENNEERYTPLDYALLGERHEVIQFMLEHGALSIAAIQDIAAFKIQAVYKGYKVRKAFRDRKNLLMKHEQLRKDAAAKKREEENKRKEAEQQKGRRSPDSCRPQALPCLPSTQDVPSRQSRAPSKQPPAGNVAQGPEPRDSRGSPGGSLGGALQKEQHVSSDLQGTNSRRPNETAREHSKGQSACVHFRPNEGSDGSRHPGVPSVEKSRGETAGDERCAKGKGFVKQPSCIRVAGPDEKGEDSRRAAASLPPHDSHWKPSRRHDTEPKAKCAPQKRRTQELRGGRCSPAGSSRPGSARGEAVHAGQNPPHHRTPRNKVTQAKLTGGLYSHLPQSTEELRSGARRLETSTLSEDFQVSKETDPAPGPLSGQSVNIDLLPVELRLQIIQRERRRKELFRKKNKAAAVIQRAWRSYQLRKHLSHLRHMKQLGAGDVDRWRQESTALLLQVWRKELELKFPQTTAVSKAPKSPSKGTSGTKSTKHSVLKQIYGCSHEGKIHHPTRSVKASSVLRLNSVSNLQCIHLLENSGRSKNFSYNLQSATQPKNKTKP
# B4: Microtubule-associated tumor suppressor candidate 2 (Homo sapiens), Q5JR59-3 (parent)
# chain: MGHCCCKPYNCLQCLDKTNESALVKEKELSIELANIRDEVAFHTAKCEKLQKEKEELERRFEDEVKRLGWQQQAELQELEERLQLQFEAEMARLQEEHGDQLLSIRCQHQEQVEDLTASHDAALLEMENNHTVAITILQDDHDHKVQELMSTHELEKKELEENFEKLRLSLQDQVDTLTFQSQSLRDRARRFEEALRKNTEEQLEIALAPYQHLEEDMKSLKQVLEMKNQQIHEQEKKILELEKLAEKNIILEEKIQVLQQQNEDLKARIDQNTVVTRQLSEENANLQEYVEKETQEKKRLSRTNEELLWKLQTGDPTSPIKLSPTSPVYRGSSSGPSSPARVSTTPR
# partner: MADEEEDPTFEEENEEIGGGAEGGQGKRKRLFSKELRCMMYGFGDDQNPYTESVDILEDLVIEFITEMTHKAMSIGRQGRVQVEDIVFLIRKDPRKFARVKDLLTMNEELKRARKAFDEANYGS
# B5: Protein SSX3 (Homo sapiens), Q99909 (parent)
# chain: MNGDDTFARRPTVGAQIPEKIQKAFDDIAKYFSKEEWEKMKVSEKIVYVYMKRKYEAMTKLGFKAILPSFMRNKRVTDFQGNDFDNDPNRGNQVQRPQMTFGRLQGIFPKIMPKKPAEEGNVSKEVPEASGPQNDGKQLCPPGKPTTSEKINMISGPKRGEHAWTHRLRERKQLVIYEEISDPEEDDE
# B6: Keratin, type II cuticular Hb6 (Homo sapiens), O43790 (parent)
# chain: MTCGSYCGGRAFSCISACGPRPGRCCITAAPYRGISCYRGLTGGFGSHSVCGGFRAGSCGRSFGYRSGGVCGPSPPCITTVSVNESLLTPLNLEIDPNAQCVKQEEKEQIKSLNSRFAAFIDKVRFLEQQNKLLETKLQFYQNRECCQSNLEPLFEGYIETLRREAECVEADSGRLASELNHVQEVLEGYKKKYEEEVSLRATAENEFVALKKDVDCAYLRKSDLEANVEALIQEIDFLRRLYEEEIRVLQSHISDTSVVVKLDNSRDLNMDCIIAEIKAQYDDIVTRSRAEAESWYRSKCEEMKATVIRHGETLRRTKEEINELNRMIQRLTAEVENAKCQNSKLEAAVAQSEQQGEAALSDARCKLAELEGALQKAKQDMACLIREYQEVMNSKLGLDIEIATYRRLLEGEEQRLCEGVGSVNVCVSSSRGGVVCGDLCASTTAPVVSTRVSSVPSNSNVVVGTTNACAPSARVGVCGGSCKRC
# B7: Outer dense fiber protein 1 (Homo sapiens), Q14990 (parent)
# chain: MAALSCLLDSVRRDIKKVDRELRQLRCIDEFSTRCLCDLYMHPYCCCDLHPYPYCLCYSKRSRSCGLCDLYPCCLCDYKLYCLRPSLRSLERKAIRAIEDEKRELAKLRRTTNRILASSCCSSNILGSVNVCGFEPDQVKVRVKDGKVCVSAERENRYDCLGSKKYSYMNICKEFSLPPCVDEKDVTYSYGLGSCVKIESPCYPCTSPCSPCSPCSPCNPCSPCNPCSPYDPCNPCYPCGSRFSCRKMIL
# Variants of: B1
# Settings: with mare3_human MAPRE3, Q9UPY8
# Sequence of mare3_human MAPRE3, Q9UPY8 (Q9UPY8 whole entry): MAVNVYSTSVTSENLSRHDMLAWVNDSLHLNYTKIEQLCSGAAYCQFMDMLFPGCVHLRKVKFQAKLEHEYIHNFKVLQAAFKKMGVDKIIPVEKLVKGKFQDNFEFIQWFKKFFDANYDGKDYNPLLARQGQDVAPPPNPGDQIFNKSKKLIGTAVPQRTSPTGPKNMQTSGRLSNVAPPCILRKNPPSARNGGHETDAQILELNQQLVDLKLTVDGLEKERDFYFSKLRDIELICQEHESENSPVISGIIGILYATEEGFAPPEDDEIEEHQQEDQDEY
row,Variant,effect of a mutation on the interaction
1,I56V,with no effect

# Variants of: B2
# Settings: with tri23_human TRIM23, P36406
# Sequence of tri23_human TRIM23, P36406 (P36406 whole entry): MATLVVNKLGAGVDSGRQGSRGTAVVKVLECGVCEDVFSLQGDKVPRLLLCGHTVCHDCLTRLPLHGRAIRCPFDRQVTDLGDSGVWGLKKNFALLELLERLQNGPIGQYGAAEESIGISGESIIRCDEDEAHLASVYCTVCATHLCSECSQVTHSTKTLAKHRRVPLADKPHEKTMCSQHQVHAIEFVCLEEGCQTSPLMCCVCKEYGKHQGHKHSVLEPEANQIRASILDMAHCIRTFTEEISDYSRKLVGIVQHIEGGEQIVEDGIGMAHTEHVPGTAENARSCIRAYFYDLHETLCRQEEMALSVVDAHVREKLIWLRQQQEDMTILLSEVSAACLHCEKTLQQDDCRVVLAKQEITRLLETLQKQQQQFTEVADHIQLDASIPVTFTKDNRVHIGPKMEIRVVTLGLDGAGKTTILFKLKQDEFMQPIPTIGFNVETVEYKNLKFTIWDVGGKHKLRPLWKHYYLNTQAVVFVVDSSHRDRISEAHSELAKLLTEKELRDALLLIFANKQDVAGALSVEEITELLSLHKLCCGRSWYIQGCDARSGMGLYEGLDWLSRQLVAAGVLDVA
row,Variant,effect of a mutation on the interaction
1,E241G,with no effect

# Variants of: B2
# Settings: with ews_human EWSR1, Q01844
# Sequence of ews_human EWSR1, Q01844 (Q01844 whole entry): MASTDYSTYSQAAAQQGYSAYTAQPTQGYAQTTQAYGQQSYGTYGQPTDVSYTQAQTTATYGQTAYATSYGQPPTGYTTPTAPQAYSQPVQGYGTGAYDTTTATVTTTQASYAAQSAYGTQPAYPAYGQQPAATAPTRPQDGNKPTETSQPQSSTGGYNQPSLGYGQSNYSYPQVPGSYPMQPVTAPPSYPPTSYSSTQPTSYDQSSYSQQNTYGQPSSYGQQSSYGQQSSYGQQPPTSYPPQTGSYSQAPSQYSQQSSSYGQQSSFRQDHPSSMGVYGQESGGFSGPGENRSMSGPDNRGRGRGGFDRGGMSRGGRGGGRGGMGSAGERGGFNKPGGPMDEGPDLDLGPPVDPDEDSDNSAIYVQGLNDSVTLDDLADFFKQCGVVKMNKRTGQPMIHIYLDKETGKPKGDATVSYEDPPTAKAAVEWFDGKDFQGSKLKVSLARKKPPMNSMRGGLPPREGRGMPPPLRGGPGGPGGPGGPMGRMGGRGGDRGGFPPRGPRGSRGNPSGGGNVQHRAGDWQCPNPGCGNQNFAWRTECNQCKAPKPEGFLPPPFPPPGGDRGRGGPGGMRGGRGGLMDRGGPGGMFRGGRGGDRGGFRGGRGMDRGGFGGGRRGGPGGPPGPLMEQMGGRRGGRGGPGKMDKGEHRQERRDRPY
row,Variant,effect of a mutation on the interaction
1,E241G,with no effect

# Variants of: B3
# Settings: with invs_human INVS
row,Variant,effect of a mutation on the interaction
1,P41A,with no effect

# Variants of: B4
# Settings: with taf13_human TAF13, Q15543
row,Variant,effect of a mutation on the interaction
1,A89V,with no effect

# Variants of: B5
# Settings: with cep63_human CEP63, Q96MT8
# Sequence of cep63_human CEP63, Q96MT8 (Q96MT8 whole entry): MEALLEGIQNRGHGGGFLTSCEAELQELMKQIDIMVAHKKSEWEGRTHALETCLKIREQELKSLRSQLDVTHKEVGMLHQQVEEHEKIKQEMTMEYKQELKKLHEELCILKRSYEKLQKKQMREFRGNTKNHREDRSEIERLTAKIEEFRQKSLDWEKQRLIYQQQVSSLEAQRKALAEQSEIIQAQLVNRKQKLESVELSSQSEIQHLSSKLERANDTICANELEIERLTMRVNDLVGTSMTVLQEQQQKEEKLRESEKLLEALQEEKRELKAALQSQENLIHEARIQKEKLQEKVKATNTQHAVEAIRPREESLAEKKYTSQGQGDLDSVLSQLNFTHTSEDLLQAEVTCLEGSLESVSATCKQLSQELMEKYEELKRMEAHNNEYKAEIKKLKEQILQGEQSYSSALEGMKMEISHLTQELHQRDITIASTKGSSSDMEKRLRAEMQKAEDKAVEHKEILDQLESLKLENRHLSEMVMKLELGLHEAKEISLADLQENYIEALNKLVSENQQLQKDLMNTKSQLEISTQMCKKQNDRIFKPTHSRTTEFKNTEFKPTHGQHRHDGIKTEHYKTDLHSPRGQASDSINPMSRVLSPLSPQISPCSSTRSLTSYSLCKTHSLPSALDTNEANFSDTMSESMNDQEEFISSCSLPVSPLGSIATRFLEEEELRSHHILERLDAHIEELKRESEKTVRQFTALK
row,Variant,effect of a mutation on the interaction
1,R159S,with no effect
2,T77A,with no effect

# Variants of: B6
# Settings: with KRT15, P19012
# Sequence of KRT15, P19012 (P19012 whole entry): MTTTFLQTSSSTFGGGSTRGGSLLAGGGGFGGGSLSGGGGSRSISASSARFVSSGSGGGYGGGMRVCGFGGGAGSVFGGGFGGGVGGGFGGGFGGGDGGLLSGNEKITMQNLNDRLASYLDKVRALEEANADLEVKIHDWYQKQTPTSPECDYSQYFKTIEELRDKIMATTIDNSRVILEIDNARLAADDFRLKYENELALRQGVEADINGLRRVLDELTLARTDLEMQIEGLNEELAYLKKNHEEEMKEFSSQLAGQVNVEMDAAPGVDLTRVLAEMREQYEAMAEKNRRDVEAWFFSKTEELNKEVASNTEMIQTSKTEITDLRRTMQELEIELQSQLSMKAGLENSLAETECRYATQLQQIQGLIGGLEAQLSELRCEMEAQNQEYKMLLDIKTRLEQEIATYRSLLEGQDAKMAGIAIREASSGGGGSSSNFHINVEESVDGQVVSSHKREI
row,Variant,effect of a mutation on the interaction
1,R408H,with no effect
2,R327C,with no effect

# Variants of: B7
# Settings: with mtus2_human MTUS2, Q5JR59
# Sequence of mtus2_human MTUS2, Q5JR59 (Q5JR59 whole entry): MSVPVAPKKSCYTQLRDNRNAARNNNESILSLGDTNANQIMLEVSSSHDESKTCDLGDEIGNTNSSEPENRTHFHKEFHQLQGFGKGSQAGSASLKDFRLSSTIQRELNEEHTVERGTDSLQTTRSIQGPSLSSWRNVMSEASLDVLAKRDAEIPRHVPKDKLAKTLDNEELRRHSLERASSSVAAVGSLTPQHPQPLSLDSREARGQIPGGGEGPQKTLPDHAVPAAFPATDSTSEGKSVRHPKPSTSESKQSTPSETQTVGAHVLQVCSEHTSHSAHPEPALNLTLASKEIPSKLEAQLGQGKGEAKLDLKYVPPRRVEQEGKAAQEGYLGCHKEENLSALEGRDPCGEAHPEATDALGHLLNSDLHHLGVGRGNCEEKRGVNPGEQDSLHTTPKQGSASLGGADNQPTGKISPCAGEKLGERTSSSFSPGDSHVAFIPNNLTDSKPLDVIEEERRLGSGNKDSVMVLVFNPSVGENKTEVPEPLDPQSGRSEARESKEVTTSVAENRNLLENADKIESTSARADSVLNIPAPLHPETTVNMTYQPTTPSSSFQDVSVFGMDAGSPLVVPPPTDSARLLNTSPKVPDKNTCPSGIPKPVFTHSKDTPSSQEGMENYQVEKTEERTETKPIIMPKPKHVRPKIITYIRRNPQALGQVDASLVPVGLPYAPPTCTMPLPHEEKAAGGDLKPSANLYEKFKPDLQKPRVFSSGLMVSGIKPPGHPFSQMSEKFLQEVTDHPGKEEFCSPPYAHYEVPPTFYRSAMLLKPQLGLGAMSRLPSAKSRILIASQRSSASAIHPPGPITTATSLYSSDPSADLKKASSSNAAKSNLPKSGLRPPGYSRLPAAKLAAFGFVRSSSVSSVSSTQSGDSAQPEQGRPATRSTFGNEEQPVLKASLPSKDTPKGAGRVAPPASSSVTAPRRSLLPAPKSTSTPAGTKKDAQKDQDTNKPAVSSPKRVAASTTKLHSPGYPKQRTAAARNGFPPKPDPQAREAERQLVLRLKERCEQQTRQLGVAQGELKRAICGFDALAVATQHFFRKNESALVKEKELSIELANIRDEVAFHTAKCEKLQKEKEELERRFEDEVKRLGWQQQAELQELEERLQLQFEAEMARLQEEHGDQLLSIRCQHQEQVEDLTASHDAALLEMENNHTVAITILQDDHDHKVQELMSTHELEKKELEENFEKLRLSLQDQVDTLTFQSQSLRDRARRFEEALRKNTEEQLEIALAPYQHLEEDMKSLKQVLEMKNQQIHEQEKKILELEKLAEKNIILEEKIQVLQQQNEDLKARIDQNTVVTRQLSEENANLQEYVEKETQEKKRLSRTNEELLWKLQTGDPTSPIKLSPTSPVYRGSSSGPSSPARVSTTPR
row,Variant,effect of a mutation on the interaction
1,K17N,with no effect
2,S89I,with no effect
